Source: the supplement of paper PMC9732359
± gives the uncertainty stated by the source.

Assay: protein stability index of a GFP-peptide fusion (yeast GPS) (PSI 1-4); higher = more stable; sorted into four equal gates, so the index is relative within each strain
Summary of the method: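 The protein stability index of a peptide was calculated by multiplying its read frequency in each gate by that gate's number and adding the products. The peptides were tiled 17-residue stretches of yeast proteins, fused downstream of GFP on a Cherry-expressing plasmid and carried in yeast as a pooled library. Mid-log cultures in leucine-free medium were sorted into four equal gates by GFP/Cherry ratio, and each gate's plasmids were PCR-amplified and Illumina-sequenced.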

Sequence | protein stability index (doa10∆) | protein stability index (pdr5∆) | protein stability index (san1∆) | protein stability index (ubr1∆)
DTNVVLQAIDLLENPNC [DIS3] | 2.84 ± 0.07 | 2.75 ± 0.063 | 2.63 ± 0.074 | 2.73 ± 0.046
VYKDNLSFIQVRIDLGT [RPO31] | 1.28 ± 0.071 | 1.58 ± 0.074 | 1.79 ± 0.1 | 1.52 ± 0.082
TSLATSAGQPNLLLSAS [ASC1] | 2.03 ± 0.06 | 1.93 ± 0.06 | 2.03 ± 0.062 | 1.99 ± 0.049
PSVAAEYVYFFNNTSVI [RPC40] | 2.09 ± 0.056 | 1.48 ± 0.057 | 1.54 ± 0.088 | 1.79 ± 0.039
KAFKICEAAVEISKKDF [SIR3] | 3.19 ± 0.13 | 2.88 ± 0.082 | 2.79 ± 0.14 | 2.85 ± 0.12
EARLFNIWGTVRTNRFD [ECM29] | 2.61 ± 0.19 | 2.14 ± 0.15 | – | 2.32 ± 0.28
DSSGVNDLHHSEKKYAE [RPN3] | 2.69 ± 0.11 | 3.24 ± 0.16 | 2.88 ± 0.21 | –
HTGKKLMAQIFFGPTYY [RPB2] | 2.64 ± 0.055 | 2.07 ± 0.043 | 1.97 ± 0.057 | 1.81 ± 0.029
NTEEKAELQSNLQVELL [YGL100W/SEH1] | 3.06 ± 0.064 | 3.02 ± 0.087 | 1.96 ± 0.13 | 2.74 ± 0.083
CNALIHIKFSAGTEANA [SRB4] | 1.96 ± 0.05 | 2.31 ± 0.039 | 2.19 ± 0.054 | 2.33 ± 0.034
VTVFLFMLILALFVFYS [COB] | 2.32 ± 0.067 | 1.8 ± 0.042 | 2.27 ± 0.057 | 1.99 ± 0.039
EAVVDQDVQRTCILHGP [FAS1] | 3.32 ± 0.11 | 3.24 ± 0.087 | 3.17 ± 0.078 | 3.38 ± 0.051
STEEIEYIELEYRDLYT [YMR129W/POM152] | 2.56 ± 0.11 | 3.04 ± 0.14 | 2.94 ± 0.13 | 2.72 ± 0.05
KPHGLAARVDIGQIIFS [RPL10] | 2.31 ± 0.058 | 2.13 ± 0.037 | 1.72 ± 0.082 | 2.15 ± 0.036
TQTFNGSIFTHETTFMT [YML031W/NDC1] | 2.86 ± 0.063 | 2.79 ± 0.066 | 2.84 ± 0.035 | 2.89 ± 0.047
SDAQSNLGSNVRNSFPL [REC8] | 3.01 ± 0.07 | 3.12 ± 0.11 | 2.87 ± 0.082 | 3.07 ± 0.055
LAIADSPQKFETNLQTF [ECM29] | 2.96 ± 0.11 | 3.3 ± 0.098 | 3.25 ± 0.048 | 2.79 ± 0.091
LKGIQEFGADWYKVAKN [SWI3] | 3.25 ± 0.071 | 3.34 ± 0.072 | 3.37 ± 0.043 | 3.34 ± 0.057
VGVVFGSGAANENPYNN [COR1] | 3.24 ± 0.15 | 3.23 ± 0.088 | 3.21 ± 0.087 | 3.07 ± 0.12
PLLESFITFSLDDWISI [IRR1] | 3.04 ± 0.078 | 2.46 ± 0.063 | 2.5 ± 0.054 | 2.54 ± 0.052
KEISARRYKLLTATPNS [POP1] | 2.1 ± 0.051 | 2.45 ± 0.061 | 2.32 ± 0.06 | 2.5 ± 0.051
FKSTESNISDEKSRISE [YMR129W/POM152] | 3.3 ± 0.2 | 3.01 ± 0.16 | 2.78 ± 0.12 | 3.05 ± 0.17
TVTIASSLNLEDTPAND [RPB8] | 2.83 ± 0.066 | 2.81 ± 0.054 | 2.65 ± 0.06 | 2.88 ± 0.067
ASISLPNHIPSVNPSNK [SWP82] | 2.99 ± 0.1 | 3.05 ± 0.069 | 3.01 ± 0.075 | 3.12 ± 0.054
EEYRKQLDKKNELQKFQ [SMC1] | 3.44 ± 0.22 | 3.43 ± 0.12 | 2.82 ± 0.079 | 3.45 ± 0.1

Sequence | protein stability index (doa10∆) | protein stability index (pdr5∆) | protein stability index (san1∆) | protein stability index (ubr1∆)
VKLPRAFIDERASDLRM [RRP43] | – | 1.68 ± 0.26 | – | 1.69 ± 0.16
CRNILGVTSLIKNLGLP [RPP1] | 1.81 ± 0.054 | 1.58 ± 0.051 | 1.23 ± 0.092 | 1.75 ± 0.045
YLFHNDRIIHTWRTQLA [ECM29] | 1.55 ± 0.05 | 1.77 ± 0.042 | 1.47 ± 0.064 | 1.91 ± 0.039
VNETEAILYTKPGHVLQ [YGR119C/NUP57] | 3 ± 0.15 | 3.12 ± 0.13 | 2.75 ± 0.13 | 3.66 ± 0.21
AFDIELSEFGIKKMLHL [YCS4] | 3.11 ± 0.067 | 3.09 ± 0.088 | 2.67 ± 0.1 | 3.12 ± 0.063
VRYTTSVMPPNEVYSAY [DLS1] | 2.83 ± 0.062 | 3.12 ± 0.069 | 2.48 ± 0.059 | 2.9 ± 0.061
LFPEQQTKEIKTERVED [RPL6B] | 3.55 ± 0.074 | 3.29 ± 0.079 | 3.46 ± 0.061 | 3.38 ± 0.063
ASKGIDRLSLQDRQQLL [ECM29] | 3.08 ± 0.083 | 3.11 ± 0.07 | 3.19 ± 0.085 | 3.21 ± 0.056
LIPFIVKQVLLSVEIGV [NUT1] | 1.57 ± 0.031 | 1.6 ± 0.031 | 1.56 ± 0.059 | 1.74 ± 0.036
WKDFTVEIAFLFRAIYL [YCG1] | 2.36 ± 0.1 | 2.36 ± 0.064 | 2.48 ± 0.1 | 2.26 ± 0.071
KKDSKPAFSFGISNGSE [YLR335W/NUP2] | 3.16 ± 0.067 | 3.12 ± 0.069 | 3.1 ± 0.044 | 3.15 ± 0.058
ILNLLNILTTHLSHPGT [ECM29] | 2.03 ± 0.042 | 1.75 ± 0.04 | 1.65 ± 0.05 | 1.76 ± 0.037
EAVKQAAKIIYLAHEDN [PRE10] | 2.75 ± 0.19 | 3.02 ± 0.12 | 3.3 ± 0.22 | 2.55 ± 0.14
LWSIHPSRQFDHYESNQ [SRB8] | 1.75 ± 0.074 | 2.24 ± 0.068 | 2.13 ± 0.11 | 2.64 ± 0.062
DIEIVRVNKNAPAVELH [FAS2] | 2.87 ± 0.061 | 3.08 ± 0.064 | 3.24 ± 0.091 | 2.96 ± 0.049
ATVDEFPLCVHLVSNEL [RPL10] | 3.01 ± 0.073 | 2.93 ± 0.067 | 3.05 ± 0.069 | 2.99 ± 0.053
FNDSQAIVCYILFELYK [SRP72] | 1.95 ± 0.056 | 2.31 ± 0.047 | 2.01 ± 0.061 | 2.36 ± 0.053
HLAVVCVDDNSKISFID [SSN2] | – | 2.84 ± 0.17 | – | 3.67 ± 0.16
LSKINAIQLDYSTANEY [RPN3] | 3.13 ± 0.084 | 2.15 ± 0.066 | 3.17 ± 0.085 | 3.06 ± 0.062
INQEKPVKLDENSANST [SIR4] | – | – | 3.51 ± 0.18 | –
SIVLLLLSQFGIKVLPE [YML103C/NUP188] | 1.8 ± 0.096 | 1.28 ± 0.085 | 1.18 ± 0.13 | 1.42 ± 0.033
TDLIREKTMMTFGKPEE [YCS4] | 3.14 ± 0.053 | 3.31 ± 0.062 | 3.19 ± 0.041 | 3.11 ± 0.05
KESPWKILMYQYNIPPE [RRP6] | 2.23 ± 0.07 | 2.01 ± 0.066 | 1.42 ± 0.11 | 1.57 ± 0.055
QWSMVAQRLQISDYQQL [SWI1] | 1.53 ± 0.057 | 1.65 ± 0.054 | 1.59 ± 0.12 | 1.41 ± 0.054
ATPSAKEASQEDDNNNV [YLR335W/NUP2] | 2.57 ± 0.058 | 2.62 ± 0.056 | 2.76 ± 0.051 | 2.73 ± 0.05
